Test results reported in patent EP4628095A1 (Xiamen University, dated 2025).

Legend:
[1] = target: T1, P2-3D-RBD (insect cell expression system); assay: SPR (Biacore 8K), HEV-p239 coupled to CM5 chip (Fig. 10A)
T1 construct: also called VHH-RBD

[2] = target: T2, P2-3E-RBD (insect cell expression system); assay: as above
T2 construct: also called VHH-RBD

[3] = target: T3, P2-3A-RBD (insect cell expression system); assay: as above
T3 construct: also called VHH-RBD

[4] = target: T4, P1-5B-RBD (insect cell expression system); assay: as above
T4 construct: also called VHH-RBD; P1-5B-RBD fusion protein

[5] = target: T5, P2-3E-RBD (mammalian cell expression system); assay: SPR (Biacore 8K), HEV-p239 coupled to CM5 chip (Fig. 10B)
T5 construct: also called VHH-RBD

[6] = target: T6, P2-5C-RBD (mammalian cell expression system); assay: as above
T6 construct: also called VHH-RBD

[7] = target: T7, P2-2C-RBD (mammalian cell expression system); assay: as above
T7 construct: also called VHH-RBD

[8] = target: T8, P2-3A-RBD (mammalian cell expression system); assay: as above
T8 construct: also called VHH-RBD

[9] = target: T9, P1-5B-RBD (mammalian cell expression system); assay: as above
T9 construct: also called VHH-RBD

Measured: binding result

B1: HEV-p239 protein (other)
chain: IALTLFNLADTLLGGLPTELISSAGGQLFYSRPVVSANGEPTVKLYTSVENAQQDKGIAIPHDIDLGESRVVIQDYDNQHEQDRPTPSPAPSRPFSVLRANDVLWLSLTAAEYDQSTYGSSTGPVYVSDSVTLVNVATGAQAVARSLDWTKVTLDGRPLSTIQQYSKTFFVLPLRGKLSFWEAGTTKAGYPYNYNTTASDQLLVENAAGHRVAISTYTTSLGAGPVSISAVAVLAPHSV
notes: also called HEV-p239 particles; HEV particles
binds: all assays above
